According to patent US20220002423A1 (GENERAL HOSPITAL, published 2022):

Experiments:
[1] = biological target: T1, Amino acid residues 122-141 of human TNFR2 (human); assay: ELISA, coated linear peptides 1 µg/well
T1 peptide: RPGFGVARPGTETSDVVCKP
Method: (§1) ELISA was also used to determine linear epitopes present on the extracellular surface of TNFR2. Linear peptides corresponding to various regions within the TNFR2 primary sequence were purchased from GenScript (Piscataway, N.J.), diluted in coating buffer and placed on Immulon 4HBX Flat Bottom Microtiter Plates (Thermo Scientific) at a concentration of 1 μg/well. Primary TNFR2 agonistic antibodies (0.1 μg/well) were incubated with substrates. Secondary antibodies against rodent IgG were used to detect the primary antibodies. Absorbance was measured using the SPECTRAMAX® 190 Absorbance Plate Reader and analyzed with SoftMax Pro 6.3 (Molecular Devices).

[2] = biological target: T2, Amino acid residues 130-149 of human TNFR2 (human); assay: ELISA, coated linear peptides 1 µg/well
T2 peptide: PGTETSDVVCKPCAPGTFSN
Method: as §1

[3] = biological target: T3, Amino acid residues 154-174 of human TNFR2 (human); assay: ELISA, coated linear peptides 1 µg/well
T3 peptide: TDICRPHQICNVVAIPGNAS
Method: as §1

[4] = biological target: T4, Amino acid residues 146-165 of human TNFR2 (human); assay: ELISA, coated linear peptides 1 µg/well
T4 peptide: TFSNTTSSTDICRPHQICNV
Method: as §1

[5] = biological target: T5, Amino acid residues 114-133 of human TNFR2 (human); assay: ELISA, coated linear peptides 1 µg/well
T5 peptide: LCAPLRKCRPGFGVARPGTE
Method: as §1

[6] = biological target: T6, Amino acid residues 1-20 of human TNFR2 (human); assay: ELISA, coated linear peptides 1 µg/well
T6 construct: 20-mer fragment
T6 peptide: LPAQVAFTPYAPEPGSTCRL
Method: as §1

[7] = biological target: T7, Amino acid residues 138-157 of human TNFR2 (human); assay: ELISA, coated linear peptides 1 µg/well
T7 peptide: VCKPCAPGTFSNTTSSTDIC
Method: as §1

[8] = biological target: T8, Amino acid residues 82-101 of human TNFR2 (human); assay: ELISA, coated linear peptides 1 µg/well
T8 peptide: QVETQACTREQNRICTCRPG
Method: as §1

[9] = biological target: Full-length human TNFR2 (human) (UniProt P20333); assay: ELISA; categorical score, 0 lowest to 4 highest affinity
[10] = biological target: T9, Amino acid residues 170-189 of human TNFR2 (human); assay: ELISA, antibody alone
T9 peptide: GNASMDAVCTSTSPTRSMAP

[11] = biological target: T10, Amino acid residues 50-69 of human TNFR2 (human); assay: ELISA, antibody alone
T10 peptide: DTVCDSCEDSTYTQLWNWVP

[12] = biological target: T11, Amino acid residues 9-28 of human TNFR2 (human); assay: ELISA, antibody alone
T11 peptide: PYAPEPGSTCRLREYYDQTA

[13] = biological target: T12, Amino acid residues 42-61 of human TNFR2 (human); assay: ELISA, antibody alone
T12 peptide: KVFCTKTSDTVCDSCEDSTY

[14] = biological target: T13, Amino acid residues 74-93 of human TNFR2 (human); assay: ELISA, antibody alone
T13 peptide: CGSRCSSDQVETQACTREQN

[15] = biological target: T14, Amino acid residues 66-85 of human TNFR2 (human); assay: ELISA, antibody alone
T14 peptide: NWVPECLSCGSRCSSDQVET

[16] = biological target: T15, Amino acid residues 90-109 of human TNFR2 (human); assay: ELISA, antibody alone
T15 peptide: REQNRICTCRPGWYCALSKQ

[17] = biological target: T16, TNFR2, hTNFR2 (23-207), 20kD (human, UniProt P20333); assay: ELISA, antibody alone
T16 construct: fragment 23-207, 20kD (so in the source)
T16 sequence (receptor fragment, looked up): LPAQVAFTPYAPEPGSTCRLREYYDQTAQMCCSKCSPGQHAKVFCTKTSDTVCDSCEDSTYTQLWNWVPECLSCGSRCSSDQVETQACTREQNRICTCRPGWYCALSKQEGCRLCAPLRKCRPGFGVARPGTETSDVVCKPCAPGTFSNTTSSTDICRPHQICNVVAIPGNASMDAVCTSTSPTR

[18] = biological target: T17, Amino acid residues 17-36 of human TNFR2 (human); assay: ELISA, antibody alone
T17 peptide: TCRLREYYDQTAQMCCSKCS

[19] = biological target: T18, Amino acid residues 58-77 of human TNFR2 (human); assay: ELISA, antibody alone
T18 peptide: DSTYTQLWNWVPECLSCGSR

[20] = biological target: T8, Amino acid residues 82-101 of human …; assay: ELISA, antibody alone
[21] = biological target: T19, Amino acid residues 26-45 of human TNFR2 (human); assay: ELISA on TNFR2 peptide fragment; categorical score, 0 lowest to 4 highest affinity
T19 sequence (peptide): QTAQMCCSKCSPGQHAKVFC

[22] = biological target: T20, Amino acid residues 34-53 of human TNFR2 (human); assay: as above
T20 sequence (peptide): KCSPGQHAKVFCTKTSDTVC

[23] = biological target: T21, Amino acid residues 108-127 of human TNFR2 (human); assay: as above
T21 sequence (peptide): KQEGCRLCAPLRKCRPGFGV

[24] = biological target: T22, Amino acid residues 98-117 of human TNFR2 (human); assay: as above
T22 sequence (peptide): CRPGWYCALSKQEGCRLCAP

[25] = biological target: T23, Amino acid residues 106-125 of human TNFR2 (human); assay: as above
T23 sequence (peptide): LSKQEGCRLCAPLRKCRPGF

binding result [1]: no binding (tested: 0.1 µg/well) | binding result [2]: no binding (tested: 0.1 µg/well) | binding result [3]: no binding (tested: 0.1 µg/well) | binding result [4]: no binding (tested: 0.1 µg/well) | binding result [5]: no binding (tested: 0.1 µg/well) | binding result [6]: no binding (tested: 0.1 µg/well) | binding result [7]: no binding (tested: 0.1 µg/well) | binding result [8]: no binding (tested: 0.1 µg/well) | Affinity Score [9]: 4 | binding result [10]: no binding | binding result [11]: no binding | binding result [12]: no binding | binding result [13]: no binding | Reading [14]: 2 | Reading [15]: 2 | Reading [16]: 2 | Reading [17]: 1.2 | binding result [18]: no binding | binding result [19]: no binding | Reading [20]: 2 | Affinity Score [21]: 1 | Affinity Score [22]: 0 | Affinity Score [23]: 2 | Affinity Score [24]: 1 | Affinity Score [25]: 2
B1: agonistic TNFR2 antibody TNFRAG1 (antibody, V domains shown)
VH: EVQLQQFGAELVKPGASVKISCKASGYTFTDYNIDWVKQSHGKSLEWIGDINPNYDSTSYSQKFRGKATLTVDKSSSTAYMELRSLTSEDTAVYYCARGNSWYFDVWGAGTTVTVSS
VL: QIVLTQSPALMSASPGEKVTMTCSASSSVRYMYWYQQKPRSSPKPWIYLTSNLASGVPARFSGSGSGTSYSLTISSMEAEDAATYYCQQWSSNPLTFGAGTKLELK
notes: the primary antibodies were detected with secondary antibodies against rodent IgG; also called monoclonal TNFR2 antibody TNFRAG1; TNFR2 agonist antibody
